Measurements published in patent US10925969B2, “Anti-BCMA polypeptides and proteins” (priority 2015, dated 2021).

T1: BCMA-expressing 293T cells (Homo sapiens, UniProt Q02223)
T1 construct: One vector encoded the full-length human BCMA; expressed in transfected cells; host or cells: 293T cells transiently transfected with pcDNA6/BCMA
T1 sequence (Q02223 1-184): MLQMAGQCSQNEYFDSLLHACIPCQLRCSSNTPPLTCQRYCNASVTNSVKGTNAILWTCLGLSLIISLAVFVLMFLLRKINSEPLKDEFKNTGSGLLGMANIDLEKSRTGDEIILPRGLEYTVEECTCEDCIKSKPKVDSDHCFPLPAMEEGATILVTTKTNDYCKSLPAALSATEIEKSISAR

T2: BCMA-rFc protein (Homo sapiens, UniProt Q02223)
T2 construct: the extracellular domain of human BCMA (residues 1-54) fused to the Fc region; made in house
T2 sequence (Q02223 1-54): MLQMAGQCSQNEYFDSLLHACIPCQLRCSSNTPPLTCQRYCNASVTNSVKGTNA

T3: BCMA (Homo sapiens, UniProt Q02223)
T3 sequence (Q02223 1-184): T1 sequence (Q02223 1-184)

T4: BCMA molecules on the surface of H929 cells (Homo sapiens, UniProt Q02223)
T4 construct: endogenous in cells; host or cells: H929 cells
T4 sequence (Q02223 1-184): T1 sequence (Q02223 1-184)

B1: BM306: anti-BCMA mAb, IgG1 isotype; VH SEQ ID NO: 15, VL SEQ ID NO: 16 (antibody, V domains shown)
VH: MEVQLQQSGPELVKPGASVKISCKTSGYTFTEYTINWVKQSHGKSLEWIGDIYPDNYNIRYNQKFKGKATLTVDKSSSTAYMELRSLSSEDSAIYYCANHDFFVFWGQGTLVTVSAAK
VL: MDIQMTQATSSLSASLGDRVTINCRTSQDISNHLNWYQQKPDGTVKLLIYYTSRLQSGVPSRFSGSGSGTDYSLTISNLEQEDIGTYFCHQGNTLPPTFGGGTKLEIKR
modifications: IgG1
B2: BM24: anti-BCMA mAb, IgG1 isotype; VH SEQ ID NO: 13, VL SEQ ID NO: 14 (antibody, V domains shown)
VH: MEVQLQQSGPELVKPGASVKMSCKASGNTLTNYVIHWMKQMPGQGLDWIGYILPYNDLTKYNEKFTGKATLTSDKSSSSAYMELNSLTSEDSAVYYCTRWDWDGFFDPWGQGTTLTVSSAS
VL: MDIVMTQSPLSLPVSLGDQASISCRSTQSLVHSNGNTHLHWYLQRPGQSPKLLIYSVSNRFSEVPDRFSASGSGTDFTLKISRVEAEDLGVYFCSQTSHIPYTFGGGTKLEIKR
modifications: IgG1
B3: labeled LMB70: LMB70 labeled with AF647 using an AF647 labeling kit (conjugate)
VH: EVQLQQSGPELVKPGASVKISCKTSGYTFTEYTINWVKQSHGKSLEWIGDIYPDNYNIRYNQKFKGKATLTVDKSSSTAYMELRSLSSEDSAIYYCANHDFFVFWGQGTLVTVSA
VL: DIQMTQATSSLSASLGDRVTINCRTSQDISNHLNWYQQKPDGTVKLLIYYTSRLQSGVPSRFSGSGSGTDYSLTISNLEQEDIGTYFCHQGNTLPPTFGGGTKLEIK
modifications: left off: another chain or arm of the molecule; a dimerising Fc or GST; small tags and cut ends
notes: LMB70 labeled with AF647 using an AF647 labeling kit

Legend:
[1] = target: T1, BCMA-expressing 293T cells; assay: FACS screening of binding to cell-surface BCMA
Method: For transfection experiments, 293T cells were seeded in 100 mm dishes (BD Biosciences, Bedford, Mass.) and grown at the subconfluent densities. pcDNA6/BCMA, pcDNA/TACI, or pcDNA6/BAFFR (6 μs) were transfected per dish by LIPOFECTAMINE LX and PLUS reagent according to the manufacturer's instructions. After 24 h, the transiently transfected cells were harvested and used for FACS screening. Cells (1-5×10^5) were incubated with serial dilution of hybridoma supernatants in FACS buffer (PBS containing 5% FBS and 0.1% sodium azide) for 1 h on ice. […] After washing twice, the cells were resuspended in 180 μl FACS buffer containing 10 nM TO-PRO-3 stain (Invitrogen), and the fluorescence associated with the live cells was measured using a BD ACCURI C6 flow cytometer (BD Biosciences). […] The isotype of established monoclonal antibodies (MAb) was determined by a mouse MAb isotyping reagents (Sigma-Aldrich). Immunoglobulin concentrations in the culture supernatants were determined by a sandwich ELISA.
Mice were intraperitoneally immunized with BCMA-rFc fusion protein in adjuvant for the first immunization, and subsequently immunized 5 times with BCMA-rFc without adjuvant. High antibody titers (1:10,000) against the BCMA-expressing 293T cells were detected in the sera from mice immunized with BCMA-rFc. […]

[2] = tested on: TNFRs (BCMA, TACI or BAFFR); assay: Cross-reactivity with TNFR superfamily members by FACS (transfected 293T cells) and ELISA (TNFR-rFc); format: binding, human; settings: mAb at 4 μg/ml
Method: For transfection experiments, 293T cells were seeded in 100 mm dishes (BD Biosciences, Bedford, Mass.) and grown at the subconfluent densities. pcDNA6/BCMA, pcDNA/TACI, or pcDNA6/BAFFR (6 μs) were transfected per dish by LIPOFECTAMINE LX and PLUS reagent according to the manufacturer's instructions. After 24 h, the transiently transfected cells were harvested and used for FACS screening. Cells (1-5×10^5) were incubated with serial dilution of hybridoma supernatants in FACS buffer (PBS containing 5% FBS and 0.1% sodium azide) for 1 h on ice. After washing twice with FACS buffer, the cells were incubated with 1:200 dilution of R-Phycoerythrin (PE)-labelled goat anti-mouse IgG F(ab′)2 (Jackson Immuno Research Laboratories, West Grove, Pa.) for 30 min. After washing twice, the cells were resuspended in 180 μl FACS buffer containing 10 nM TO-PRO-3 stain (Invitrogen), and the fluorescence associated with the live cells was measured using a BD ACCURI C6 flow cytometer (BD Biosciences). Positive hybridoma clones were transferred to 24-well pates. To exclude the false positive in the first screening, 24-well culture supernatants were re-assayed 2 days after transfer. […] The isotype of established monoclonal antibodies (MAb) was determined by a mouse MAb isotyping reagents (Sigma-Aldrich). Immunoglobulin concentrations in the culture supernatants were determined by a sandwich ELISA. […]

BCMA-rFc protein = target: T2, BCMA-rFc protein; assay: Binding kinetics of MAbs by bio-layer interferometry (BLITZ); settings: for ka / kd: BCMA-rFc immobilized sensor
Method: The binding kinetics of MAbs to BCMA were measured by bio-layer interferometry using a BLITZ (ForteBio, Menlo Park, Calif.) instrument. According to the manufacturer's instructions, BCMA-rFc were immobilized on amine-reactive second-generation biosensors by amine coupling following the activation of the sensor surface with N-hydroxysuccinimide (NHS) and N-ethyl-N-(3-dimethylaminopropyl) carbodiimide hydrochloride (EDC). Serial dilutions of MAbs were run across sensor surface at five different concentration in PBS (pH 7.4). The sensorgram data set was globally fit using the built-in BLITZ software to determine association rate constant (Ka), dissociation rate constant (Kd), and affinity constant (KD).
The binding kinetics of these two anti-BCMA mAbs against BCMA-rFc protein were measured by bio-layer interferometry. Serial dilutions of anti-BCMA MAbs (20, 10, 5, 2.5, 1.25 μg/ml) were applied to the BCMA-rFc immobilized sensor and detected. Real-time biomolecular interaction analyses were performed with BLITZ software. […] The dissociation constants (KD) of both mAbs were less than 1×10^−12 (exceeded the detection limits).

BCMA = target: T3, BCMA; assay: Affinity measurement of AF647-labeled and unlabeled LMB70; format: binding; settings: after the first labeling
Method: (§1) LMB70 was labeled with AF647 for measurement of uptake in vivo. LMB70 was labeled twice with AF647 using an AF647 labeling kit (Life Technologies). Labeling efficacy and activity were measured by WST-8 assay and affinity measurement.

H929 cells = assay: WST-8 assay of AF647-labeled and unlabeled LMB70; format: cell-based; settings: for IC50 (WST-8): in ng/mL
Method: as §1

[3] = target: T4, BCMA molecules on the surface of H929 cells; assay: Quantification of BCMA molecules on cell surface by flow cytometry with labeled LMB70; format: binding; settings: 1h on ice
Method: To quantify the BCMA molecules on the surface of H929 cells, H929 cells were incubated with various concentrations of labeled LMB70 for 1h on ice in FLOW buffer. The cells were washed and analyzed by flow cytometry, together with AF647 quantification beads.

Row | Molecule | binding to BCMA antigen on the cell surface [1] | cross-reactivity with other TNFR superfamily members [2] | association rate constant (Ka) compared to BM24 (BCMA-rFc protein) | ka (BCMA-rFc protein) | kd (BCMA-rFc protein) | Bmax (affinity measurement) (BCMA) | IC50 (WST-8) (H929 cells; after the first labeling) | IC50 (WST-8) (H929 cells; after the second labeling) | fold less active than the unlabeled toxins (H929 cells; labeled versus unlabeled) | Bmax ([3]; first labeling) | Bmax ([3]; second labeling)
1 | B1 | high affinity and specificity | specific to BCMA | high | 415000 M⁻¹ s⁻¹ | <1e-07 s⁻¹ | – | – | – | – | – | –
2 | B2 | high affinity and specificity | specific to BCMA | – | 297000 M⁻¹ s⁻¹ | <1e-07 s⁻¹ | – | – | – | – | – | –
3 | B3 | – | – | – | – | – | 1131 | 6.082 | 10.69 | about 4 fold | 150,000 molecules per cell | 230,000 molecules per cell
